One block for each binder: values may come before it.
Target: T1, Histone H4 methylated peptide, SGRGK(me3)GGKGLGKGGAK (trimethyl-lysine K(me3) at K5)
T1 peptide: SGRGKGGKGLGKGGAK
Assay: SPR

Kd: 0.87 mM
B1: D6 Fab (Fab, V domains shown)
VH: QTVKESGGRLVTPGGTLTLTCTVSGFSLSRYAMSWVRQAPGEGLEYIGWINTYGSAYYASWVNGRFTISKTSTTMDLKMTSLTAADTATYFCVRWFADGGMDPWGPGTLVTVSS
VL: ALVLTQTPSPVSAAVGGAVSISCQSSQNIYKDNELSWYQQKPGQPPKLLIYKASTLASGVPSRFSGSGSGTQFTLTISGVQCDDAATYYCQGSRYNNGWDSGFGGGTEVVVK

Kd: 1.6 mM
B2: C9 Fab (Fab, V domains shown)
VH: QSVEESGGRLVTPGTPLTLTCTVSGFSLTSYDMSWVRQAPGKGLEYIGFISSTTGGTYYASWAKGRFTISKTSTTVDLKITSPTTEDTATYFCAAGSWYNMWGPGTLVTVSS
VL: AQVLTQTPSSVSAAVGGTVTINCQASQSVYNNNWLGWYQQKPGQPPKLLIYKASTLASGVPSRFRGSGSGTQFTLTISDVQCDDAATYYCAGGYNGNIFPFGGGTEVVVT

Source: paper PMC7948472 (2020)
